Target: T1, Nogo-B (mouse (endogenous in primary Schwann …, UniProt Q99P72-5 1-356))
T1 sequence (looked up): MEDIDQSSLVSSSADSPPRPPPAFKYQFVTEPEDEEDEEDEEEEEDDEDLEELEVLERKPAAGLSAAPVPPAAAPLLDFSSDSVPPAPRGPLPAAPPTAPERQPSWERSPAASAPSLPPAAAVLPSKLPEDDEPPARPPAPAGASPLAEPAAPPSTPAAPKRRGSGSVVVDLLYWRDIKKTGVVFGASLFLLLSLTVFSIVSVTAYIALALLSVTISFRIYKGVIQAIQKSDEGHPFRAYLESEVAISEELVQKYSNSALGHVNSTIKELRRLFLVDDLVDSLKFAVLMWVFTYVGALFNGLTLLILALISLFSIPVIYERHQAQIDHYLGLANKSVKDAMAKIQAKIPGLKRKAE
Test: cell-based or functional assay

total neurite length (TNL) of adult wildtype sensory neurons on wildtype Schwann cells with recombinant NgBR-Ecto at 1 μg/ml, relative to control (set to 1.0): 0.74 relative to the control levels
B1: Nogo-B receptor NgBR (receptor, mouse (endogenous in sensory neurons), UniProt Q99LJ8 1-297, looked up)
chain: MTGLYELVWRVLHALLCLHLTLTSWLRVRFGTWNWIWRRCCRAASAAVLAPLGFTLRKPRAVGRNRRHHRHPHGGPGPGPGPAATHPRLRWRADVRSLQKLPVHMGLLVTEEVQEPSFSDIASLVVWCMAVGISYISVYDHQGIFKRNNSRLMDEILKQQQELLGQDCSKYSAEFANSNDKDDQDLNCPSAVKVLSPEDGKADIVRAAQDFCQLVAQQQRKPTDLDVDLLGSLLSSHGFPDPDLVLKFGPVDSTLGFLPWQIRLTEIVSLPSHLNISYEDFFSALRQYAACEQRLGK

From PMC4655273, “Schwann Cell Expressed Nogo-B Modulates Axonal Branching of Adult Sensory Neurons Through the Nogo-B Receptor NgBR” (Frontiers in Cellular Neuroscience, 2015)
